The record followed here is patent publication US20260078190A1 (SYSTIMMUNE, published 2026).

Like-named read-outs stand apart in the source and are kept apart here.

The target in test [1] is T1, SI-2C1, dimeric EGFR ECD fused to rabbit Fc (UniProt P00533 25-645, limits assumed).
T1 construct: extracellular domain; Made in house; also called dimeric EGFR ECD reagent; not shown: rabbit Fc
The test can be described thus: ELISA, plate coated with dimeric EGFR ECD-rabbit Fc (SI-2C1) at 3 µg/mL, antibody from 50 µg/mL in 3x dilutions, goat anti-human IgG-HRP, OD 450 nm.

Test [2] concerns the target T1, SI-2C1, dimeric EGFR ECD fused to …. As to the kind of experiment: ELISA, plate coated with dimeric EGFR ECD-rabbit Fc (SI-2C1) at 3 µg/mL, antibody from 10 µg/mL in 3x dilutions, goat anti-human IgG-HRP, OD 450 nm.
For test [3], the target named is T2, Her3 ECD (Sino Biological, 10201-H08H-10) (UniProt P21860 20-643).
T2 construct: extracellular domain; Bought reagent; also called Her3 extracellular domain
The test can be described thus: BLI (BLItz), same tip after the EGFR step; second step Her3 ECD 200 nM, 120 s association, 60 s dissociation.

Test [4] concerns the target T2, Her3 ECD (Sino Biological, …). The description is as above. This is another data set of the same source.
Test [5] concerns the target T3, Extracellular domain (Met 1-Ser 645) of human EGFR with a C-terminal polyhistidine tag (human, UniProt P00533 25-645).
T3 construct: range 1-645; also called EGFR protein; EGFR ECD; not shown: C-terminal polyhistidine tag
As to the kind of experiment: BLI (Octet Red96), antibody on anti-human Fc sensor, curve fit at EGFR 300 nM.

The target in test [6] is T3, Extracellular domain (Met 1-Ser 645) of …. As to the kind of experiment: BLI (Octet Red96), antibody on anti-human Fc sensor, average of the four curve fits.
Test [7] has as its target T4, Monomeric EGFR ECD (SI-2R4) (UniProt P00533 25-645, limits assumed).
T4 construct: extracellular domain; Coated antigen of the serum stability ELISA
The test can be described thus: ELISA on coated monomeric EGFR ECD (SI-2R4), detection through Her3 ECD rabbit IgG1 (SI-1R1); antibody after 7 days in 95% human serum at 37 C; Day 7 at 37 C, 95% human serum.

The target of test [8] is T5, EGFR on A431 and FaDu tumor cells (UniProt P00533 25-1210, limits assumed).
T5 construct: whole, on cells; the cells are native tumor lines, not transfectants
The test can be described thus: flow cytometry titration on tumour cells (Fadu by the legend paragraph 18, A431 by Example 7 paragraph 83), PE anti-human IgG-Fc, geometric MFI; the table's head prints 'IC50 (nM)', Example 7 calls the values EC50 of binding; bispecific EGFR x Her3 on cells that carry both, the anti-Her3 curve (SI-1C1) stays near the baseline.

Test [9] deals with T4, Monomeric EGFR ECD (SI-2R4). The test can be described thus: ELISA on coated monomeric EGFR ECD (SI-2R4), detection through Her3 ECD rabbit IgG1 (SI-1R1) and anti-rabbit IgG-HRP; antibody in 95% human serum, Day 0; Day 0, 95% human serum.
The target of test [10] is T3, Extracellular domain (Met 1-Ser 645) of …. The test can be described thus: BLI (Octet Red96), antibody on anti-human Fc sensor, curve fit at EGFR 100 nM.
Test [11] addresses T5, EGFR on A431 and FaDu tumor cells. The test can be described thus: flow cytometry titration on tumour cells (A431 by the legend paragraph 19, FaDu by Example 7 paragraph 83), PE anti-human IgG-Fc, geometric MFI; the table's head prints 'IC50 (nM)', Example 7 calls the values EC50 of binding; bispecific EGFR x Her3 on cells that carry both, the anti-Her3 curve (SI-1C1) stays near the baseline.

Test [12] has as its target T3, Extracellular domain (Met 1-Ser 645) of …. As to the kind of experiment: BLI (Octet Red96), antibody on anti-human Fc sensor, curve fit at EGFR 11.1 nM.
For test [13] the target is unchanged. The test can be described thus: BLI (Octet Red96), antibody on anti-human Fc sensor, curve fit at EGFR 33.3 nM.
Test [14] concerns the target T4, Monomeric EGFR ECD (SI-2R4). The test can be described thus: ELISA on coated monomeric EGFR ECD (SI-2R4), detection through Her3 ECD rabbit IgG1 (SI-1R1); antibody in 95% human serum, Day 7 at 55 C (degradation condition).
For test [15] the target is unchanged. As to the kind of experiment: ELISA on coated monomeric EGFR ECD (SI-2R4, 3 µg/mL), antibody after 3 days at 37 °C in 95% human serum, column 'Day 3 (37°C)'; M follows from the text, which gives the neighbouring 4.293e-010 as 429.3 pM.

B1: SI-1C5 (antibody, human IgG1, kappa, V domains shown)
VH: QVQLQQSGAEVKKPGSSVKVSCKASGYTFTNYYIYWVRQAPGQGLEWIGGINPTSGGSNFNEKFKTRVTITVDESTNTAYMELSSLRSEDTAFYFCARQGLWFDSDGRGFDFWGQGSTVTVSS
VL: DIQMTQSPSSLSASVGDRVTITCRSSQNIVHSNGNTYLDWYQQTPGKAPKLLIYKVSNRFSGVPSRFSGSGSGTDFTFTISSLQPEDIATYYCFQYSHVPWTFGQGTKLQITR
notes: Monospecific anti-EGFR IgG1 kappa
For the molecule B1, the “EC50 (read off the curve)” value in [1] was approximately 5 nM.

B2: SI-1C4 (bispecific antibody, human IgG1, kappa, V domains shown)
VH: EVQLVESGGGLVQPGGSLRLSCAASGFTLSGDWIHWVRQAPGKGLEWVGEISAAGGYTDYADSVKGRFTISADTSKNTAYLQMNSLRAEDTAVYYCARESRVSFEAAMDYWGQGTLVTVSS
VL: DIQMTQSPSSLSASVGDRVTITCRASQNIATDVAWYQQKPGKAPKLLIYSASFLYSGVPSRFSGSGSGTDFTLTISSLQPEDFATYYCQQSEPEPYTFGQGTKVEIKR
notes: Control: two-in-one bispecific antibody against EGFR and HER3 (Schaefer et al. 2011 platform); also called IC4; benchmark antibody
B2: the “EC50 (read off the curve)” value in test [2] was approximately 0.03 nM. In test [3], the binding result is “binds”.

B3: SI-1X4 (bispecific antibody, human IgG1, kappa)
heavy: not shown
light: DIQMTQSPSSLSASVGDRVTITCRSSQNIVHSNGNTYLDWYQQTPGKAPKLLIYKVSNRFSGVPSRFSGSGSGTDFTFTISSLQPEDIATYYCFQYSHVPWTFGQGTKLQITRTVAAPSVFIFPPSDEQLKSGTASVVCLLNNFYPREAKVQWKVDNALQSGNSQESVTEQDSKDSTYSLSSTLTLSKADYEKHKVYACEVTHQGLSSPVTKSFNRGEC
notes: Tetravalent: anti-EGFR (1C5) IgG1 with anti-HER3 scFv on the heavy chain C-terminus
As to B3, the binding result in test [4] is “binds”. Moreover, the “EC50 (read off the curve)” value in [1] was approximately 5 nM.

B4: SI-1X4.2 (bispecific antibody)
heavy: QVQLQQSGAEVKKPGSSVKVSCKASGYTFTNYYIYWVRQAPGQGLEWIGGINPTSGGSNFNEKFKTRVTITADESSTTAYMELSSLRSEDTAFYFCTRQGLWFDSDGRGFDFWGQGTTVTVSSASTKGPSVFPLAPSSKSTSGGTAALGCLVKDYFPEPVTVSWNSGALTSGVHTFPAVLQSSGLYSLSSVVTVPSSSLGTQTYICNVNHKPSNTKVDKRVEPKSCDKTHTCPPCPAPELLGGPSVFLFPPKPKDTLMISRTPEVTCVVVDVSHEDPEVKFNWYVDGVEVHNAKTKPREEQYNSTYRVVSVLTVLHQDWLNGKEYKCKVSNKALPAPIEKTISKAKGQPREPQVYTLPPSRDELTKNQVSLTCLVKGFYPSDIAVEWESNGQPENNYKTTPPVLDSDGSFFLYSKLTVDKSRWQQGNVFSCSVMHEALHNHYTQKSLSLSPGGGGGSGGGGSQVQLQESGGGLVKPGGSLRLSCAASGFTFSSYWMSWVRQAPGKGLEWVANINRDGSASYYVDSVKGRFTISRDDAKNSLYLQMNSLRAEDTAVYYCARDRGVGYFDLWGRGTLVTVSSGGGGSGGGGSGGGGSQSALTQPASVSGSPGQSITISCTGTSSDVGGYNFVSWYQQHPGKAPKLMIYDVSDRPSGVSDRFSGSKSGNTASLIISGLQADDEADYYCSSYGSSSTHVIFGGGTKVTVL
light: B3 light
notes: Tetravalent: anti-EGFR (1C5.2) IgG1 with anti-HER3 scFv
For the molecule B4, the Kd is 36.9 nM in [5]; 18.4 nM in test [6]; 21 nM in test [10]; 6.19 nM in test [12]; 9.44 nM in [13]. The koff in [5] amounted to 0.00171 s⁻¹; in test [6], 0.00155 s⁻¹; in test [10] it was 0.00165 s⁻¹; in [12] it was 0.00135 s⁻¹; in test [13], 0.00149 s⁻¹. For the same molecule, the kon in [5] is 46300 M⁻¹ s⁻¹; in test [6] it was 125000 M⁻¹ s⁻¹; in test [10], 78800 M⁻¹ s⁻¹; in test [12], 218000 M⁻¹ s⁻¹; in test [13], 158000 M⁻¹ s⁻¹. Moreover, the concentration for a half-maximal effect (EC50) came out at 0.467 nM in test [7]; 4.02 nM in test [8]; 0.429 nM in test [9]; 2.28 nM in [11]; 4.25 nM in test [14]; 0.509 nM in test [15].

B5: SI-1X1 (bispecific antibody, human IgG1, kappa)
heavy: not shown
light: QSALTQPASVSGSPGQSITISCTGTSSDVGGYNFVSWYQQHPGKAPKLMIYDVSDRPSGVSDRFSGSKSGNTASLIISGLQADDEADYYCSSYGSSSTHVIFGGGTKLTVLRTVAAPSVFIFPPSDEQLKSGTASVVCLLNNFYPREAKVQWKVDNALQSGNSQESVTEQDSKDSTYSLSSTLTLSKADYEKHKVYACEVTHQGLSSPVTKSFNRGEC
notes: Tetravalent: anti-HER3 IgG1 with anti-EGFR scFv on the heavy chain C-terminus (heavy chain entry holds IgG1 heavy chain, connector and scFv)
Turning to B5, the “EC50 (read off the curve)” value in test [2] was approximately 0.2 nM. In test [3], the binding result is recorded as “binds”.

B6: SI-1X3 (bispecific antibody, human IgG1, kappa)
heavy: not shown
light: B5 light
notes: Tetravalent: anti-HER3 IgG1 with anti-EGFR (1C5) scFv on the heavy chain C-terminus
As to B6, the binding result in test [4] was “binds”.
